Laboratory results as given in patent publication US20170333570A1 (FORMATION BIOLOGICS, published 2017).

Target: human epidermal growth factor receptor (hEGFR) (human, UniProt P00533 25-1210)
Experiment: cell-based or functional assay

Row | Binder | IC50 (nM), cell growth/survival (sulforhodamine B), A549 [nM] | IC50 (nM), cell growth/survival (sulforhodamine B), NCI-H226 [nM] | IC50 (nM), cell growth/survival (sulforhodamine B), NCI-H292 [nM]
1 | 1024-DM1 (antibody, V domains shown, DM1 conjugated through SMCC linker; conjugated residues and chain not stated) VH: QVQLQQPGAELVEPGGSVKLSCKASGYTFTSHWMHWVKQRPGQGLEWIGEINPSSGRNNYNEKFKSKATLTVDKSSSTAYMQFSSLTSEDSAVYYCVRYYGYDEAMDYWGQGTSVTVS VL: DIVMTQAAFSNPVTLGTSASISCRSSKSLLHSNGITYLYWYLQKPGQSPQLLIYQMSNLASGVPDRFSSSGSGTDFTLRISRVEAEDVGVYYCAQNLELPYTFGGGTKLEIKR | 24.7 | 1.89 | 0.09
2 | 992-DM1 (antibody, V domains shown, DM1 conjugated through SMCC linker; conjugated residues and chain not stated) VH: EVQLQQPGSELVRPGASVKLSCKASGYTFTSYWMHWVKQRPGQGLEWIGNIYPGSRSTNYDEKFKSKATLTVDTSSSTAYMQLSSLTSEDSAVYYCTRNGDYYVSSGDAMDYWGQGTSVTVS VL: DIQMTQTTSSLSASLGDRVTISCRTSQDIGNYLNWYQQKPDGTVKLLIYYTSRLHSGVPSRFSGSGSGTDFSLTINNVEQEDVATYFCQHYNTVPPTFGGGTKLEIKR | 2.2 | 1.07 | 0.22
